In article PMC5027247:

What was measured:
Test in all cases: ITC; 25 °C; 50 mM Tris pH 7.5, 100 mM NaCl, 1 mM EDTA, 1 mM DTT; 1 mM TBK1 fragment in the syringe, 0.1 mM OPTN or NAP1 fragment in the cell; one-site binding model
[1] = biological target: OPTN L54Q (ITC sample) (human) (UniProt Q96CV9)
[2] = biological target: OPTN L47Q (ITC sample) (human) (UniProt Q96CV9)
[3] = biological target: OPTN M44Q (ITC sample) (human) (UniProt Q96CV9)

B1: TBK1 CTD (residues 677–729) (domain or fragment)
chain: YPSSNTLVEMTLGMKKLKEEMEGVVKELAENNHILERFGSLTMDGGLRNVDCL
Kd [1]: 20 µM | Kd [2]: 26 µM | Kd [3]: 22.6 µM
